Data on 14 molecules can be found in patent US20260092093A1 (TJ BIOPHARMA SHANGHAI, published 2026).

Assay [1] has as its target T1, recombinant hIL-18Rα extracellular domain (human, UniProt Q13478 22-329, biotin label (selection) or fluorescent probe (single-clone FACS), sites not given).
T1 construct: extracellular domain; also called hIL-18Rα ECD; hIL-18Rα-ECD
T1 sequence (looked up): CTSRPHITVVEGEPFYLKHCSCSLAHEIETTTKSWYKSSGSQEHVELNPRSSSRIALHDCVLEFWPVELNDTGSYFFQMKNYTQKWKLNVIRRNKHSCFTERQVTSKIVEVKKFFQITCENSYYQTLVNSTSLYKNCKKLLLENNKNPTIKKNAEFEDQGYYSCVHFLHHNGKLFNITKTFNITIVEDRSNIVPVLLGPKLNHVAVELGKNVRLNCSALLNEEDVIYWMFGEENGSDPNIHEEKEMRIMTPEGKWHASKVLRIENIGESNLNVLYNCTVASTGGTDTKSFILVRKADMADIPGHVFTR
Put plainly: single-clone FACS, yeast display, 10 nM labelled hIL-18Rα ECD. In outline:
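Yeast clones displaying IL-18 variants (screening rounds 4 and 5), at equal density, incubated with 10 nM fluorescently labelled hIL-18Rα ECD, then washed. Fraction of fluorescence-positive binding cells per clone measured by flow cytometry.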

Assay [2] deals with T2, hIL-18Rα ECD-Fc fusion protein (human, UniProt Q13478 22-329).
T2 construct: extracellular domain; captured on Protein A sensor
T2 sequence (looked up): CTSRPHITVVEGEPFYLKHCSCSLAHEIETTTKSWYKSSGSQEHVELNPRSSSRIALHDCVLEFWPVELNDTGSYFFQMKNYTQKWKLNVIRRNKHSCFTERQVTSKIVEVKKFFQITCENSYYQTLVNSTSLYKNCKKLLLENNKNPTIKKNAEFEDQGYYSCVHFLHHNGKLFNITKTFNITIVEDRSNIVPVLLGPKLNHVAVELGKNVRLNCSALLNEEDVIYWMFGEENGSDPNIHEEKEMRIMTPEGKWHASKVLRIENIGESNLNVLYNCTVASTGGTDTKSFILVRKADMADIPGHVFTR
Put plainly: BLI (Octet RED96), hIL-18Rα ECD-Fc on Protein A sensor. On the procedure: The affinities of IL-18 variant polypeptides for hIL-18Rα were assessed by Biolayer Interferometry (BLI) on Octet RED96 using Protein A sensor coated with hIL-18Rα ECD-Fc fusion protein, and WT hIL-18 was used as a control.
For orientation: Biolayer interferometry detects binding as a change in optical thickness at a sensor tip.

B1: IL-18 variant polypeptide M12 (ligand)
chain: YFPKLKSKLSVIRNLNDQVLFIDQGNRPLFEDMTDSDCRDNAPRTIFIISMYKGSGARGMAVTISVKCEKISTLSCENKIISFKEMNPPDTIKDTKSDIIFFQRSVPGHDNKMQFESSSYEGYFLACEKERDLFKLILKKEDELGDRSIMFTVQNED
In the case of B1, in assay [1], the “% of fluorescence positive cells” value is 88.3%. Also, in assay [2], binding was put at a Kd of 24.9 nM; the “Response (nm)” value came to 0.186 nm; the off-rate (koff) – broadly, the first-order rate constant of dissociation – came to 0.0107 s⁻¹; the kon (commonly the rate constant with which the complex forms) came out at 427000 M⁻¹ s⁻¹.

B2: IL-18 variant polypeptide M23 (ligand)
chain: YFPKLRSKLSVIRNLNDQVLFIDQGNRPLFEDMTDSDCRDNAPRTIFIISMYKYSTRRGMAVTISVKCEKISTLSCENKIISFKEMNPPDNIKDTKSDIIFFQRSVPGHDNKMQFESSSYEGYFLACEKERDLFKLILKKEDELGDRSIMFTVQNED
B2: in assay [1], the “% of fluorescence positive cells” value came out at 2.36%. Further, in assay [2], the dissociation constant (Kd) (in general, the free concentration of one partner at which half of the binding sites on the other are occupied at equilibrium, for simple one-to-one binding) came to 368 nM; the “Response (nm)” value was determined as 0.0522 nm; the koff stood at 0.0302 s⁻¹; the kon worked out at 82300 M⁻¹ s⁻¹.

B3: IL-18 variant polypeptide M18 (ligand)
chain: YFPKLRSKLSVIRNLNDQVLFIDQGNRPLFEDMTDSDCRDNAPRTIFIISMYKSSRRRGMAVTISVKCEKISTLSCENKIISFKEMNPPDGIKDTKSDIIFFQSSVPGHDNKMQFESSSYEGYFLACEKERDLFKLILKKEDELGDRSIMFTVQNED
In the case of B3, the “% of fluorescence positive cells” value in assay [1] amounted to 80.9%. In assay [2], the Kd amounted to 33.1 nM, the “Response (nm)” value was 0.173 nm, the koff is 0.0134 s⁻¹ and the kon was determined as 404000 M⁻¹ s⁻¹.

B4: IL-18 variant polypeptide M20 (ligand)
chain: YFPKLRSKLSVIRNLNDQVLFIDQGNRPLFEDMTDSDCRDNAPRTIFIISMYKSSRSRGMAVTISVKCEKISTLSCENKIISFKEMNPPDGIKDTKSDIIFFQSSVPGHDNKMQFESSSYEGYFLACEKERDLFKLILKKEDELGDRSIMFTVQNED
Take B4: in assay [1], the “% of fluorescence positive cells” value stood at 86.2%. For the same molecule, in assay [2], binding was put at a Kd of 35.1 nM, the “Response (nm)” value came out at 0.136 nm, the koff was 0.0167 s⁻¹ and the kon came out at 476000 M⁻¹ s⁻¹.

B5: IL-18 variant polypeptide M19 (ligand)
chain: YFPKLKSKLSVIRNLNDQVLFIDQGNRPLFEDMTDSDCRDNAPRTIFIISMYKHSEQRGMAVTISVKCEKISTLSCENKIISFKEMNPPDAIKDTKSDIIFFQRSVPGHDNKMQFESSSYEGYFLACEKERDLFKLILKKEDELGDRSIMFTVQNED
With B5, in assay [1], the “% of fluorescence positive cells” value amounted to 90%. Moreover, in assay [2], the Kd came out at 112 nM, the “Response (nm)” value was 0.025 nm, the koff was found to be 0.0554 s⁻¹ and the kon is 495000 M⁻¹ s⁻¹.

B6: IL-18 variant polypeptide M25 (ligand)
chain: YFPKLRSKLSVIRNLNDQVLFIDQGNRPLFEDMTDSDCRDNAPRTIFIISMYKLSTTRGMAVTISVKCEKISTLSCENKIISFKEMNPPDRIKDTKSDIIFFQRSVPGHDNKMQFESSSYEGYFLACEKERDLFKLILKKEDELGDRSIMFTVQNED
On to B6, for which the “% of fluorescence positive cells” value in assay [1] turned out to be 1.41%. In assay [2], the Kd is 44.1 nM, the “Response (nm)” value amounted to 0.0798 nm, the koff came out at 0.0256 s⁻¹ and the kon came to 581000 M⁻¹ s⁻¹.

B7: IL-18 variant polypeptide M24 (ligand)
chain: YFPKLRSKLSVIRNLNDQVLFIDQGNRPLFEDMTDSDCRDNAPRTIFIISMYKYSTSRGMAVTISVKCEKISTLSCENKIISFKEMNPPDNIKDTKSDIIFFQRSVPGHDNKMQFESSSYEGYFLACEKERDLFKLILKKEDELGDRSIMFTVQNED
As for B7, the “% of fluorescence positive cells” value in assay [1] was found to be 1.36%. In addition, in assay [2], the Kd stood at 930 nM, the “Response (nm)” value amounted to 0.0434 nm, the koff was determined as 0.0451 s⁻¹ and the kon was determined as 48500 M⁻¹ s⁻¹.

B8: IL-18 variant polypeptide M17 (ligand)
chain: YFPKLRSKLSVIRNLNDQVLFIDQGNRPLFEDMTDSDCRDNAPRTIFIISMYKLSTARGMAVTISVKCEKISTLSCENKIISFKEMNPPDGIKDTKSDIIFFQRSVPGHDNKMQFESSSYEGYFLACEKERDLFKLILKKEDELGDRSIMFTVQNED
On to B8, for which the “% of fluorescence positive cells” value in assay [1] worked out at 87.1%. In addition, in assay [2], the Kd was 67.7 nM, the “Response (nm)” value is 0.0784 nm, the koff turned out to be 0.0231 s⁻¹ and the kon amounted to 340000 M⁻¹ s⁻¹.

B9: IL-18 variant polypeptide M13 (ligand)
chain: YFPKLKSKLSVIRNLNDQVLFIDQGNRPLFEDMTDSDCRDNAPRTIFIISMYKQSIWRGMAVTISVKCEKISTLSCENKIISFKEMNPPDNIKDTKSDIIFFQRSVPGHDNKMQFESSSYEGYFLACEKERDLFKLILKKEDELGDRSIMFTVQNED
As for B9, in assay [1], the “% of fluorescence positive cells” value worked out at 96.4%. Also, in assay [2], the Kd came out at 11.6 nM, the “Response (nm)” value amounted to 0.31 nm, the koff stood at 0.0038 s⁻¹ and the kon was found to be 327000 M⁻¹ s⁻¹.

B10: IL-18 variant polypeptide M22 (ligand)
chain: YFPKLRSKLSVIRNLNDQVLFIDQGNRPLFEDMTDSDCRDNAPRTIFIISMYKYSRGRGMAVTISVKCEKISTLSCENKIISFKEMNPPDKIKDTKSDIIFFQSSVPGHDNKMQFESSSYEGYFLACEKERDLFKLILKKEDELGDRSIMFTVQNED
As for B10, the “% of fluorescence positive cells” value in assay [1] is 4.83%. Further, in assay [2], the Kd was 4080 nM, the “Response (nm)” value turned out to be 0.0592 nm, the koff turned out to be 0.0398 s⁻¹ and the kon was 9740 M⁻¹ s⁻¹.

B11: IL-18 variant polypeptide M16 (ligand)
chain: YFPKLRSKLSVIRNLNDQVLFIDQGNRPLFEDMTDSDCRDNAPRTIFIISMYKSSRNRGMAVTISVKCEKISTLSCENKIISFKEMNPPDGIKDTKSDIIFFQSSVPGHDNKMQFESSSYEGYFLACEKERDLFKLILKKEDELGDRSIMFTVQNED
In the case of B11, the “% of fluorescence positive cells” value in assay [1] was 88.5%. In assay [2], the dissociation constant (Kd) amounted to 42.6 nM, the “Response (nm)” value came to 0.111 nm, the off-rate (koff) came out at 0.0177 s⁻¹ and the kon turned out to be 415000 M⁻¹ s⁻¹.

B12: IL-18 variant polypeptide M21 (ligand)
chain: YFPKLRSKLSVIRNLNDQVLFIDQGNRPLFEDMTDSDCRDNAPRTIFIISMYKSSSTRGMAVTISVKCEKISTLSCENKIISFKEMNPPDGIKDTKSDIIFFQSSVPGHDNKMQFESSSYEGYFLACEKERDLFKLILKKEDELGDRSIMFTVQNED
Regarding B12, the “% of fluorescence positive cells” value in assay [1] worked out at 89.9%. For the same molecule, in assay [2], binding was characterised by a dissociation constant (Kd) of 64.9 nM, the “Response (nm)” value was found to be 0.0791 nm, the koff was determined as 0.0221 s⁻¹ and the kon is 340000 M⁻¹ s⁻¹.

B13: IL-18 variant polypeptide M14 (ligand)
chain: YFNKLKSKLSVIRNLNDQVLFIDQGNRPLFEDMTDSDCRDNAPRTIFIISMYKPSSSRGMAVTISVKCEKISTLSCENKIISFKEMNPPDRIKDTKSDIIFFQASVPGHDNKMQFESSSYEGYFLACEKERDLFKLILKKEDELGDRSIMFTVQNED
For the molecule B13, the “% of fluorescence positive cells” value in assay [1] stood at 88.3%. Further, in assay [2], the affinity, expressed as Kd, was 23.6 nM; the “Response (nm)” value stood at 0.218 nm; the koff stood at 0.00588 s⁻¹; the kon was 250000 M⁻¹ s⁻¹.

B14: IL-18 variant polypeptide M15 (ligand)
chain: YFPKLRSKLSVIRNLNDQVLFIDQGNRPLFEDMTDSDCRDNAPRTIFIISMYKSSYTRGMAVTISVKCEKISTLSCENKIISFKEMNPPDGIKDTKSDIIFFQRSVPGHDNKMQFESSSYEGYFLACEKERDLFKLILKKEDELGDRSIMFTVQNED
Turning to B14, the “% of fluorescence positive cells” value in assay [1] was found to be 95%. In assay [2], the Kd stood at 36.7 nM, the “Response (nm)” value was determined as 0.122 nm, the koff is 0.0183 s⁻¹ and the kon stood at 499000 M⁻¹ s⁻¹.
